The record followed here is patent US20210380702A1 (Regeneron, published 2021).

Numbering of substitutions follows the chain as printed.

B1: H1H9387P2 (antibody, human IgG1, V domains shown)
VH: QVQLVQSGAEVKKPGSSVKVSCKASGGTFNTYVLSWVRQAPGQGLEWMGEIIPILGAANYAQNFQGRVTFTTDESTNTAYMDLSSLRSEDTAVYYCARDRTSGGFDPWGQGTLVTVSS
VL: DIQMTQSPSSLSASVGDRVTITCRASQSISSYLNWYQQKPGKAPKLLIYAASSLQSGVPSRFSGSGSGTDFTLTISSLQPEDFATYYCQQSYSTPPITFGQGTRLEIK
B2: H2aM8314N (antibody, mouse IgG2, V domains shown)
VH: EVQLVESGGGVVRPGGSLRLSCAASGFTFDDYGMTWVRQAPGRGLEWVSGIHWHGKRTGYADSVKGRFTISRDNAKKSLYLQMNSLKGEDTALYHCVRGGMSTGDWFDPWGQGTLVIVSS
VL: DIQMTQSPSSLSASLGDRVTITCRASQSINSYLNWYQQKPGKAPKLLIYVASSLQSGVPSRFSGSGSGTEFTLTISNLQPEDFATYYCQQSYSTPPITFGQGTRLEIK
notes: also called H2M8314N
B3: H2aM8317N (antibody, mouse IgG2, V domains shown)
VH: EVQLVESGGGLVQPGGSLRLSCAASGFTVGSNYMNWVRQAPGKGLEWVSVIYSGGSTYYADSVKGRFTISRLTSKNTLYLQMSSLRPEDTAVYYCARGIRGLDVWGQGTTVTVSS
VL: B2 VL with L15V, S28T, S31I, K42R, K45R, V50A, E70D, N77S, Q89H
notes: also called H2M8317N
B4: H2aM8321N (antibody, mouse IgG2, V domains shown)
VH: EERLVESGGDLVQPGGSLRLSCAASGITVGTNYMNWVRQAPGKGLEWVSVISSGGNTHYADSVKGRFIMSRQTSKNTLYLQMNSLETEDTAVYYCARGIRGLDVWGQGTMVTVSS
VL: B2 VL with L15V, I29M, N30S, K42R, Y49F, V50A, E70D, N77S
notes: also called H2M8321N
B5: H1H9345P2 (antibody, human IgG1, V domains shown)
VH: EVQLVESGGGLVQPGGSLRLSCAASGFTISTNYMNWVRQAPGKGLEWVAVIYSSGSTYYIDSVKGRFTISRLTSKNTVYLQMSSLNSEDTAVYYCARGIRGFDIWGQGTMVTVSS
VL: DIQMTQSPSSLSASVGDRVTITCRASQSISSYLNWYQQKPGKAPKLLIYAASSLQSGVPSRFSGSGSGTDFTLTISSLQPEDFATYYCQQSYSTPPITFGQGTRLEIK
B6: H1H9354P2 (antibody, human IgG1, V domains shown)
VH: EVQLVESGGGLVQPGGSLRLSCEASGFTVGVNHMNWVRQAPGKGLEWVSVIFSSGRTFYGDYVKGRLTIFRQTSQNTVYLQMNSLRSEDTAIYYCARGIGGLDIWGRGTMVTVSS
VL: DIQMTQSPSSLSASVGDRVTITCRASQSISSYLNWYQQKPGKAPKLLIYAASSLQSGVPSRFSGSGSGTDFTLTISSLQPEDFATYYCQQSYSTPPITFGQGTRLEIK
B7: H1H9364P2 (antibody, human IgG1, V domains shown)
VH: EVQLVESGGGLVQPGRSLRLSCAASGFTFDDYALHWVRQAPGKGLEWVSGISWTGGTIDYADSVKGRFTISRDNAKNSLYLQMSSLRTEDTAIYYCTRDIRGNWKYGGWFDPWGQGTLVTVSS
VL: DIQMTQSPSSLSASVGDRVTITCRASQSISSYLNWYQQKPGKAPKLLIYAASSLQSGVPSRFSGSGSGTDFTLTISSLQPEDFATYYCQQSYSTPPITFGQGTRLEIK
B8: H2aM8310N (antibody, mouse IgG2, V domains shown)
VH: QVQLVQSGAEVKKPGASVQVSCKASGYSFTGYYIHWVRQAPGQGLEWMGWINPNSGTKKYAHKFQGRVTMTRDTSIDTAYMILSSLISDDTAVYYCARDEDWNFGSWFDSWGQGTLVTVSS
VL: DIVMTQTPLSSPVTLGQPASISCRSSQTLVHGDGNTYLSWIQQRPGQPPRLLIYKVSNQFSGVPDRFSGSGAGTDFTLKISRVEAEDVGLYFCMQATHFPITFGQGTRLEIK
notes: also called H2M8310N
B9: H1H9336P (antibody, human IgG1, V domains shown)
VH: EVQLVESGGGLVQPGRSLRLSCAASGFTFDDFAMHWVRQAPGKGLEWVSGISWTGGNMDYANSVKGRFTISREDAKNSLYLQMNSLRAADTALYYCVKDIRGIVATGGAFDIWGRGTMVTVSS
VL: DIQMTQSPSSLSASVGDRVTISCRASQTISTYLNWFQQKPGKAPKLLIYVVSSLQSGVPSRFSGSGSGTDFTLTISSLQPEDFATYYCQQSYSTPFTFGPGTKVDIK
B10: H2aM8323N (antibody, mouse IgG2, V domains shown)
VH: QVQLVQSGAEVKMPGSSVRVSCKASGGIFSSSTISWVRQAPGQGLEWMGEIIPVFGTVNYAQKFQDRVIFTADESTTTAYMELSSLKSGDTAVYFCARNWGLGSFYIWGQGTMVTVSS
VL: EIVLTQSPGTLSLSPGERATLSCRASQSFNFNYLAWYQQKPGQAPRLLIYGASSRATGIPDRFSGSGSGTDFTLTINRLEPEDFGVFYCQQYESAPWTFGQGTKVEIK
notes: also called H2M8323N
B11: H1H9382P2 (antibody, human IgG1, V domains shown)
VH: EVQLVESGGGLVQPGGSLRLSCAASGFTVGTNFMNWVRQAPGKGLEWVSAIYSGGTANYADSVKGRFTISRDTSRNTLYLQMNSLRTEDTAVYYCARGGGMDVWGQGTTVTVSS
VL: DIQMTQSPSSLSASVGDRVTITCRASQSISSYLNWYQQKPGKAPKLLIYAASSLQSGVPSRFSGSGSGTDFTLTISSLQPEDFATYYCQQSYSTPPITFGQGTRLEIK
B12: H1H9396P2 (antibody, human IgG1, V domains shown)
VH: QVQLVQSGAEVEKPGASVKVSCKASGYIFTHYGISWVRQAPGQGLEWVGWISPYNGYTDYAQKLQGRVTLTTDTSTTTAYMELRNLRSDDTAMYYCSRGRGPYWSFDLWGRGTLVTVSS
VL: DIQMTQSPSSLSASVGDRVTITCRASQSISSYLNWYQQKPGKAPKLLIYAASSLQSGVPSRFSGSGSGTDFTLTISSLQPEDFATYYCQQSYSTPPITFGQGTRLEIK
B13: H2aM8312N (antibody, mouse IgG2, V domains shown)
VH: QVHLVQSGAEVKKPGASVKVSCKASGYTFTGYYIHWVRQAPGHGLEWMGWLNPNTGTTKYIQNFQGRVTMTRDTSSSTAYMELTRLRSDDTAVYYCARDEDWNYGSWFDTWGQGTLVTVSS
VL: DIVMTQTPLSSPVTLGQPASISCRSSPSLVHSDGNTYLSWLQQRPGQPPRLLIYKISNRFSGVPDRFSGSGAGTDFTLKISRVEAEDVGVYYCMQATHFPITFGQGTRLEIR
notes: also called H2M8312N
B14: H2aM8306N (antibody, mouse IgG2, V domains shown)
VH: EVQLVESGGGLVQPGGSLRLSCAASGFTFSRFWMSWVRQAPGKGLEWVANINQDGTEKYYVDSVKGRFTISRDNAKNSLYLQMNSLRAGDTAVYYCANTYYDFWSGHFDYWGQGTLVTVSS
VL: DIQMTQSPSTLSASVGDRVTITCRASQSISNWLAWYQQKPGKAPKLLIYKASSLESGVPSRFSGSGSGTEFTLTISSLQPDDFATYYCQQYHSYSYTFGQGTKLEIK
notes: also called H2M8306N
B15: H2aM8309N (antibody, mouse IgG2, V domains shown)
VH: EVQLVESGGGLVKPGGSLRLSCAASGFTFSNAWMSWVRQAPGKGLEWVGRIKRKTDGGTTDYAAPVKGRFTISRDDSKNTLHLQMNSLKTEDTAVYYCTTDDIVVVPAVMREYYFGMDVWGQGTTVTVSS
VL: DIQMTQSPSSLSASVGDRVTITCRTSQGIRNDLGWYQQKPGKAPKRLIYAASSLQSGVPSRFSGSGSGTEFTLTISSLQPEDFATYYCLQHNNYPYTFGQGTKLEIK
notes: also called H2M8309N
B16: H1H9329P (antibody, human IgG1, V domains shown)
VH: EVQLVESGGGLVQSGGSLRLSCAASGFTFSSYWMSWVRQAPGKGLEWVANIKQDGSEKYYVDSVKGRFTISRDNAKNSLYLQMNSLRADDTAVYYCARDDIVVVPAPMGYYYYYFGMDVWGQGTTVTVSS
VL: B15 VL with T25A, N93S

This assay deals with T1, recombinant human PD-L1 expressed with a C-terminal myc-myc-hexahistidine tag (hPD-L1-MMH) (human).
T1 construct: Monomeric PD-L1 reagent; also called hPD-L1-MMH Monomer
T1 sequence (chain, as listed by the source limits assumed): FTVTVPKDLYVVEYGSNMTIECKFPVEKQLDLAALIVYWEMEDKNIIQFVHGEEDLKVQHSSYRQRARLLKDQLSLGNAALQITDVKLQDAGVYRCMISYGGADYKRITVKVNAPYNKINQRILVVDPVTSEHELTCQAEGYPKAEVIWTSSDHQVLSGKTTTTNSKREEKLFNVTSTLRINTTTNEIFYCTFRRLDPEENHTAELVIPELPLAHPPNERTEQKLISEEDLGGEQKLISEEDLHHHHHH
The assay is described as follows: SPR, captured mAb, 25 C. The procedure: Binding association and dissociation rate constants (kₐ and kd, respectively), equilibrium dissociation constants and dissociation half-lives (KD and t_{1/2}, respectively) of antigen binding to purified anti-PD-L1 monoclonal antibodies were determined using a real-time surface plasmon resonance biosensor assay on a Biacore 4000 instrument. The Biacore sensor surface was either derivatized with polyclonal rabbit anti-mouse antibody (GE, #BR-1008-38) or with monoclonal mouse anti-human Fc antibody (GE, #BR-1008-39) to capture approximately 200-300 RUs of anti-PD-L1 monoclonal antibodies, expressed with either a mouse Fc or with human Fc, respectively. […] Different concentrations of PD-L1 reagents were injected over the anti-PD-L1 monoclonal antibody captured surface at a flow rate of 30 μL/min. The binding of the PD-L1 reagents to the captured monoclonal antibodies was monitored for 3 to 4 minutes while the dissociation of antibody bound PD-L1 reagents was monitored for 10 minutes in HBST running buffer (0.01 M HEPES pH 7.4, 0.15 M NaCl, 3 mM EDTA, 0.05% v/v Surfactant tween-20). Experiments were performed at either 25° C. or 37° C. Kinetic association (kₐ) and dissociation (kd) rate constants were determined by processing and fitting the data to a 1:1 binding model using Scrubber 2.0c curve fitting software. Binding dissociation equilibrium constants (KD) and dissociative half-lives (t_{1/2}) were then calculated from the kinetic rate constants as: KD (M)=kd/kₐ and t_{1/2} (min)=[In2/(60*kd)].
The term Kd denotes the constant that tells how readily two partners part at equilibrium. What is called koff is a measure of how fast the partners let go of each other. One may read the kon as a measure of how fast the partners come together. For the molecule B1, the Kd came to 22.1 nM, the koff amounted to 0.0582 s⁻¹, the kon is 2.64e+06 M⁻¹ s⁻¹ and the t1/2 was 0.2 min.

As to B2, the Kd is 0.0558 nM, the koff amounted to 5.17e-05 s⁻¹, the kon is 925000 M⁻¹ s⁻¹ and the t1/2 was determined as 224 min.

As to B3, the Kd was found to be 421 nM, the koff was 0.0395 s⁻¹, the kon turned out to be 94000 M⁻¹ s⁻¹ and the t1/2 was 0.3 min.

B4: the Kd amounted to 34.9 nM, the koff came out at 0.00359 s⁻¹, the kon came out at 103000 M⁻¹ s⁻¹ and the t1/2 came out at 3.2 min.

B5: the Kd was determined as 165 nM, the koff came to 0.0149 s⁻¹, the kon worked out at 90200 M⁻¹ s⁻¹ and the t1/2 was determined as 0.8 min.

For the molecule B6, the Kd came out at 8.04 nM, the koff was 0.000383 s⁻¹, the kon came to 47600 M⁻¹ s⁻¹ and the t1/2 was determined as 30 min.

On to B7, for which the Kd came out at 0.321 nM, the koff amounted to 0.000299 s⁻¹, the kon worked out at 932000 M⁻¹ s⁻¹ and the t1/2 stood at 39 min.

Turning to B8, the Kd came out at 3.5 nM, the koff is 0.00031 s⁻¹, the kon turned out to be 88600 M⁻¹ s⁻¹ and the t1/2 is 37 min.

On to B9, for which the Kd worked out at 0.492 nM, the koff was 0.00039 s⁻¹, the kon came to 792000 M⁻¹ s⁻¹ and the t1/2 was 30 min.

As for B10, the Kd turned out to be 0.238 nM, the koff worked out at 0.000223 s⁻¹, the kon came out at 937000 M⁻¹ s⁻¹ and the t1/2 worked out at 52 min.

As for B11, the Kd was 60.6 nM, the koff is 0.00479 s⁻¹, the kon was found to be 79000 M⁻¹ s⁻¹ and the t1/2 worked out at 2.4 min.

In the case of B12, the Kd came out at 12.7 nM, the koff came out at 0.00218 s⁻¹, the kon is 172000 M⁻¹ s⁻¹ and the t1/2 worked out at 5.3 min.

As to B13, the Kd was 9.51 nM, the koff turned out to be 0.000722 s⁻¹, the kon is 75900 M⁻¹ s⁻¹ and the t1/2 was 16 min.

Regarding B14, the Kd stood at 69.6 nM, the koff stood at 0.01 s⁻¹, the kon worked out at 144000 M⁻¹ s⁻¹ and the t1/2 worked out at 1.2 min.

Regarding B15, the Kd was 16.3 nM, the koff is 0.0104 s⁻¹, the kon is 642000 M⁻¹ s⁻¹ and the t1/2 was determined as 1.1 min.

On to B16, for which the Kd was determined as 75.8 nM, the koff turned out to be 0.134 s⁻¹, the kon was determined as 1.77e+06 M⁻¹ s⁻¹ and the t1/2 stood at 0.1 min.
